Reference: article PMC4674563

Biological target: Photosystem II core complex from solubilized grana (SG-PSII) (Nicotiana tabacum (endogenous in thylakoids) | Nicotiana tabacum) (UniProt P69556)
Assay: SEC + native gel or EMSA; Ni-NTA-purified PSII pools on Superose 6 in 40 mM MES-NaOH pH 6.5, 20 mM NaCl, 5 mM MgCl2, 1 mM CaCl2, 10 mM NaHCO3, 0.01% β-DDM; pools and fractions checked by BN-PAGE (3-12% gradient, 4°C); C2 also seen by negative-stain TEM

## Photosystem II core complex from solubilized grana (SG-PSII) (from UniProt P69556 1-344; P06411 1-508; P06413 15-473; P69686 1-353; P69384 1-83; P06415 1-73; P60139 1-38; Q40519 38-136)
  stoichiometry N: 2
